# Reference: patent publication US20110300561
# B1: Staphylococcus aureus N-Succinyl-L,L-DAP Desuccinylase (DapE) (protein)
# chain: MWKEKVQQYEDQIINDLKGLLAIESVRDDAKASEDAPVGPGPRKALDYMYEIAHRDGFTTHDVDHIAGRIEAGKGNDVLGILCHVDVVPAGDGWDSNPFEPVVTEDAIIARGTLDDKGPTIAAYYAIKILEDMNVDWKKRIHMIIGTDEESDWKCTDRYFKTEEMPTLGFAPDAEFPCIHGEKGITTFDLVQNKLTEDQDEPDYELITFKSGERYNMVPDHAEARVLVKENMTDVIQDFEYFLEQNHLQGDSTVDSGILVLTVEGKAVHGMDPSIGVNAGLYLLKFLASLNLDNNAQAFVAFSNRYLFNSDFGEKMGMKFHTDVMGDVTTNIGVITYDNENAGLFGINLRYPEGFEFEKAMDRFANEIQQYGFEVKLGKVQPPHYVDKNDPFVQKLVTAYRNQTNDMTEPYTIGGGTYARNLDKGVAFGAMFSDSEDLMHQKNEYITKKQLFNATSIYLEAIYSLCVEE
# How the values were obtained:
# Asp-Lys = target: T1, Asp-Lys
# T1 chain: DK
# Arg-Ile = target: T2, Arg-Ile
# T2 chain: RI
# Arg-Val = target: T3, Arg-Val
# T3 chain: RV
# Phe-Val = target: T4, Phe-Val
# T4 chain: FV
# Ala-Ser = target: T5, Ala-Ser
# T5 chain: AS
# Arg-Leu = target: T6, Arg-Leu
# T6 chain: RL
# Ser-His = target: T7, Ser-His
# T7 chain: SH
# Arg-Ala = target: T8, Arg-Ala
# T8 chain: RA
# His-Leu = target: T9, His-Leu
# T9 chain: HL
# Gly-Ser = target: T10, Gly-Ser
# T10 chain: GS
# Lys-Leu = target: T11, Lys-Leu
# T11 chain: KL
# Gly-Lys = target: T12, Gly-Lys
# T12 chain: GK
# Lys-Phe = target: T13, Lys-Phe
# T13 chain: KF
protein,measurement,setting,value
B1,"Activity (S. aureus DapE Qualitative Dipeptidase Activity, TLC assay)",Asp-Lys,+
same,"Activity (S. aureus DapE Qualitative Dipeptidase Activity, TLC assay)",Arg-Ile,+++
same,"Activity (S. aureus DapE Qualitative Dipeptidase Activity, TLC assay)",Arg-Val,+++
same,"Activity (S. aureus DapE Qualitative Dipeptidase Activity, TLC assay)",Phe-Val,+++
same,"Activity (S. aureus DapE Qualitative Dipeptidase Activity, TLC assay)",Ala-Ser,+
same,"Activity (S. aureus DapE Qualitative Dipeptidase Activity, TLC assay)",Arg-Leu,+++
same,"Activity (S. aureus DapE Qualitative Dipeptidase Activity, TLC assay)",Ser-His,++
same,"Activity (S. aureus DapE Qualitative Dipeptidase Activity, TLC assay)",Arg-Ala,+++
same,"Activity (S. aureus DapE Qualitative Dipeptidase Activity, TLC assay)",His-Leu,+
same,"Activity (S. aureus DapE Qualitative Dipeptidase Activity, TLC assay)",Gly-Ser,+
same,"Activity (S. aureus DapE Qualitative Dipeptidase Activity, TLC assay)",Lys-Leu,++
same,"Activity (S. aureus DapE Qualitative Dipeptidase Activity, TLC assay)",Gly-Lys,+
same,"Activity (S. aureus DapE Qualitative Dipeptidase Activity, TLC assay)",Lys-Phe,++
